Test results taken from patent publication US20100204147A1, “Methods For Delivering Thymosin Beta 4, Analogues, Isoforms and Other Derivatives” (REGENERX BIOPHARMACEUTICALS, INC., priority 2003, published 2010).

Legend:
Aα221-391 sub-fragment = target: T1, Aα221-391 sub-fragment (Homo sapiens, UniProt P02671); assay: ELISA of incorporation into immobilized Aα221-391 sub-fragment; type: biochemical
T1 construct: (residues Aα221-391 and Aα392-610, respectively); made in house; host or cells: E. coli, pET20b expression vector
T1 sequence (P02671 240-410): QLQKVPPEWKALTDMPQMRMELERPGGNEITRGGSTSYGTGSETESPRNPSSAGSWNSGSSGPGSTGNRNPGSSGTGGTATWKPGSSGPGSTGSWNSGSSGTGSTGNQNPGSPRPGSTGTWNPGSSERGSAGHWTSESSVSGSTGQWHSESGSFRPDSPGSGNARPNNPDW
Procedure: The interaction between thymosin β4 and fibrin(ogen) and its fragments in the presence or absence of FXIIIa was studies by ELISA using plastic microliter plates. Wells of microliter plates were coated overnight at […] with fibrinogen and fibrin at 10 μg/mL or with the recombinant fragments of 20 μg/ml, all in 0.1 M NaHCO3 buffer, pH 8.3. Fibrin was made by addition to the wells of a mixture containing 10 μg/mL fibrinogen 1 NIH u/ml thrombin and 400 u/ml aprotinin, followed by overnight incubation at +4° C. The wells were then blocked by incubation with Super Blocker (Pierce) at 37° C. for 1 h. Following washing with TBS containing 0.05% Tween-20 (TBS-Tween), the indicated concentrations of thymosin β4, FXIII, FXIIIa(Thr) and FXIIIa(Ca) were added to the wells and incubated for 2-2.5 h at 37° C. Bound (incorporated) thymosin β4 was detected by the reaction with rabbit anti-thymosin β4 serum and peroxidase-conjugated anti-rabbit IgG. A TMB Microwell Peroxidase Substrase was added to the wells, and the incorporated thymosin β4 was measured spectrophotometrically at 450 nm.

fibrin = target: T2, fibrin (Homo sapiens, UniProt P02671); assay: Factor XIIIa-mediated incorporation of FITC-labeled thymosin β4 into fibrin (spectrophotometric); type: biochemical
T2 construct: purchased Enzyme Research Laboratories (South Bend, Ind.); host or cells: fibrin generated in the well or tube from the purchased fibrinogen with bovine thrombin
T2 sequence (P02671 36-629): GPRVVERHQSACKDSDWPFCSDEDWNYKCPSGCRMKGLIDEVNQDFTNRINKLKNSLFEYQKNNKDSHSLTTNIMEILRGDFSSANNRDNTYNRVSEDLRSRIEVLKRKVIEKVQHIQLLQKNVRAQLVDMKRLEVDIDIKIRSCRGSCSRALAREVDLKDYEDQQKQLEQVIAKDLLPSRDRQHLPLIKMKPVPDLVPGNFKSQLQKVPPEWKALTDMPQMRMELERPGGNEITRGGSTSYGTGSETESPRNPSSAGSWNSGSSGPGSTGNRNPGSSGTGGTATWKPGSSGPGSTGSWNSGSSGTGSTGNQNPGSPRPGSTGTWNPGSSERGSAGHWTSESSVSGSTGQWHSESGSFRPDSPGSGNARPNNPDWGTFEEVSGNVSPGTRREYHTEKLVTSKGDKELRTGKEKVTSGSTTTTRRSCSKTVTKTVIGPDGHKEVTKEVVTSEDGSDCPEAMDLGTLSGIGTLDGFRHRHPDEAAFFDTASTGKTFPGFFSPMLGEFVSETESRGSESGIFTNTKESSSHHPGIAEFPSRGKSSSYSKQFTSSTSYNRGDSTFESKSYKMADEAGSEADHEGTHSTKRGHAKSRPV
T2 sequence (P02675 45-491 partner): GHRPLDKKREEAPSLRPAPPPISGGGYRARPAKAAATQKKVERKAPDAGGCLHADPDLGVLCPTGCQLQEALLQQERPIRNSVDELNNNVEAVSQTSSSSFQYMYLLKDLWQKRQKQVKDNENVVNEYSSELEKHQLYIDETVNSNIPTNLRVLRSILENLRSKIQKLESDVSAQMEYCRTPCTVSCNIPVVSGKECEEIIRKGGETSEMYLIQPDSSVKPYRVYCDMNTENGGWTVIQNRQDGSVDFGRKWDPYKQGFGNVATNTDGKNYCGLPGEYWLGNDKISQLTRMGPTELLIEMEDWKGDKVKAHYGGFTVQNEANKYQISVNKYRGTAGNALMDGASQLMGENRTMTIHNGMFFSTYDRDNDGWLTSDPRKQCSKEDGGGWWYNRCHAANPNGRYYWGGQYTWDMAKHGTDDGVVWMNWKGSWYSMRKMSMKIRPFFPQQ
T2 sequence (P02679 27-437 isoform P02679-2 partner): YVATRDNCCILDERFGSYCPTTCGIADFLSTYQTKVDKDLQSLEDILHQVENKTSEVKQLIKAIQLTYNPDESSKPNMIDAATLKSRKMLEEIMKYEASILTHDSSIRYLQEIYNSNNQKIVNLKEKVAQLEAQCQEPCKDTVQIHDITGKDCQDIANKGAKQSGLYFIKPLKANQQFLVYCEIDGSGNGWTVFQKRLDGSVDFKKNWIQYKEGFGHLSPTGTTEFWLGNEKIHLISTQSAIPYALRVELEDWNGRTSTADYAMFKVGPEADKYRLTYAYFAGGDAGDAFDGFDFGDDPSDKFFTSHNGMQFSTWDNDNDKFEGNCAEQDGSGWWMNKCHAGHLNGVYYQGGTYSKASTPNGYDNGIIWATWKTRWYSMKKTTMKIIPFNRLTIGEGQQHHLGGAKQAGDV
Procedure: Reactions of incorporation of FITC-labeled and unlabeled thymosin β4 into fibrinogen and fibrin were performed in Eppendorf tubes containing a mixture of fibrinogen at 3 mg/mL (9 μM) and thymosin β4 or FITC-labeled thymosin β4 at […] (30 μM) in 100 μL TBS with 2.5 mM CaCl2. The reactions were initiated by addition of FXIIIa(Ca) or FXIIIa(Thr) to final concentration of 30 μg/mL. The final concentration of thrombin in the FXIIIa(Thr)-containing mixtures was made at 2.5 NIH u/mL, sufficient to rapidly form fibrin clot which was observed visually. The reactions with FITC-labeled thymosin β4 lasted for 4 hours at 37° C. in the dark and were stopped by heat inactiviation of the enzymes in boiling water for 5 min during fibrinogen and fibrin denatured and precipitated. The pellets were centrifuged and washed 3 times in TBS and then solubilized. The amounts of fibrin(ogen) and FITC-labeled thymosin β4 in the solubilized pellet were determined spectrophotomertrically using absorption molar coefficients E280,1%=15.0 and ε495=72,000 M^−1cm^−1, respectively. To prepare samples with unlabeled thymosin β4 for analysis by SDS-PAGE and Western blot the reaction mixtures at the indicated time were heat-inactivated as above and solubilized by addition of sample buffer (Invitrogen) containing SDS and reducing agent.

non-covalent interaction with Aα221-391 sub-fragment (ELISA) (Aα221-391 sub-fragment; non-activated factor XIII or without it): no significant non-covalent interaction
incorporation into immobilized Aα221-391 (ELISA) (Aα221-391 sub-fragment; presence of factor XIIIa): very low
degree of incorporation into fibrin (fibrin; fibrinogen 9 μM, thymosin β4 30 μM, factor XIIIa with thrombin, 4 hours, 37° C.): 0.4 moles per mole
molar incorporation ratio of thymosin β4 to fibrin (fibrin; physiological concentrations of fibrin(ogen) and factor XIII): 0.4
Substance: thymosin β4
